Measured values from patent US20050048070A1 (published 2005).

Tests used:
Experiment in all cases: Western blot of SDS-PAGE-separated K8 GST fusion proteins, stained with COU-1 alone
[1] = target: T1, K8 (1-383)
T1 construct: not shown: N-terminal GST and its linker (modified pGEX-2T)
T1 chain: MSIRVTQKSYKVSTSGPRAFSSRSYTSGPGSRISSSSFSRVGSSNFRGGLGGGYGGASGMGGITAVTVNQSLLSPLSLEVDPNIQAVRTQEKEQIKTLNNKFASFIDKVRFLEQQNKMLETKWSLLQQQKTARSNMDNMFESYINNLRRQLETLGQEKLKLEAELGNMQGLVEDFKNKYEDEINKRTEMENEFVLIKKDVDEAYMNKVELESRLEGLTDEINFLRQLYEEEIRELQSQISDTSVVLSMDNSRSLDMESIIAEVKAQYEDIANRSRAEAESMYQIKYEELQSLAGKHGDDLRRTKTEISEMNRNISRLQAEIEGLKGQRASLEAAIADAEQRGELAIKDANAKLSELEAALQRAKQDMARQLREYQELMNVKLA

[2] = target: T2, K8 (1-129)
T2 construct: not shown: N-terminal GST carrier (modified pGEX-2T) and any linker
T2 chain: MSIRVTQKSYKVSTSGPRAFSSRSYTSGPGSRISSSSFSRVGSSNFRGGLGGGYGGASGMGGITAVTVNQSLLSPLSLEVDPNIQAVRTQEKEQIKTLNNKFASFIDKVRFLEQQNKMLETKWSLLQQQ

[3] = target: T3, K8 (1-342)
T3 construct: not shown: N-terminal GST and its linker (modified pGEX-2T)
T3 chain: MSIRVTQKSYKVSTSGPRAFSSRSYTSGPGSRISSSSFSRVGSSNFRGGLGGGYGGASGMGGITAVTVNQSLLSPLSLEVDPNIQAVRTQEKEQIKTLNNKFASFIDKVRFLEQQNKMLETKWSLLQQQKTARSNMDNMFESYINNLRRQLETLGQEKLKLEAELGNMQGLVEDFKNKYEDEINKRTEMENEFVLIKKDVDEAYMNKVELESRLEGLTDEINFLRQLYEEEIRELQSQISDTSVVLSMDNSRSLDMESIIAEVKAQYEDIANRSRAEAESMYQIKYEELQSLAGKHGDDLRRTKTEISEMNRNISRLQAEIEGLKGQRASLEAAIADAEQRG

[4] = target: T4, K8 (1-233)
T4 construct: not shown: N-terminal GST carrier (modified pGEX-2T) and any linker
T4 chain: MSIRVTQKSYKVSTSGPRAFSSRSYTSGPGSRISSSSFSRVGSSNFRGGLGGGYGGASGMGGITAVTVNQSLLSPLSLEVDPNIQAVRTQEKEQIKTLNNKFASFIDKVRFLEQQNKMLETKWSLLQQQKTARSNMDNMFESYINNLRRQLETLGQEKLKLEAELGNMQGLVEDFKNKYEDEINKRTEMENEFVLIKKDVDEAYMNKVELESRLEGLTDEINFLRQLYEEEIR

[5] = target: T5, K8 (1-299)
T5 construct: not shown: N-terminal GST and its linker (modified pGEX-2T)
T5 chain: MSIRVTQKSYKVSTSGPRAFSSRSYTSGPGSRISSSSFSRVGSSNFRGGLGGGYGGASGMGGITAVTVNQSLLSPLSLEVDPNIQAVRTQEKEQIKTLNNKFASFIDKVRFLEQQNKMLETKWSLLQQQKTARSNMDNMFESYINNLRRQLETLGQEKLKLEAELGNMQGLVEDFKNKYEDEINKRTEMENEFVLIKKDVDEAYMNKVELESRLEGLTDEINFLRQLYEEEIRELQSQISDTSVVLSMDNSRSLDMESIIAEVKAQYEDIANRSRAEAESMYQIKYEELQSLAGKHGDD

[6] = target: T6, K8(1-65) GST fusion protein (human, UniProt P05787 2-66)
T6 construct: Alone, not complexed; not shown: glutathione S-transferase (GST) fusion partner, modified pGEX-2T vector
T6 sequence: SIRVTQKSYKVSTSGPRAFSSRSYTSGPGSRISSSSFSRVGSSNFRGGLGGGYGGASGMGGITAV

[7] = target: T7, K8 (1-367)
T7 construct: not shown: N-terminal GST and its linker (modified pGEX-2T)
T7 chain: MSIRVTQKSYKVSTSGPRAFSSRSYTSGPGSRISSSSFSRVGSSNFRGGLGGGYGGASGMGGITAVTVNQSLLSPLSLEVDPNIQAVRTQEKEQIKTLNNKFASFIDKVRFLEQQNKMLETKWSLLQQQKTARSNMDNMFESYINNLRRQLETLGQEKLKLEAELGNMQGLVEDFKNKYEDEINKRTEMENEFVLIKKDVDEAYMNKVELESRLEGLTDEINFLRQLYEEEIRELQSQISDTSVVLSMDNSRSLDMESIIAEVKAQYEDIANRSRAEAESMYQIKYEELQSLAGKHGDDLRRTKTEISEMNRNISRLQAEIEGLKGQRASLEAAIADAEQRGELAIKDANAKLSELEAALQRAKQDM

B1: human monoclonal IgM antibody COU-1 (antibody, V domains shown)
VH: GAEVKKPGASVKVSCKASDYTFSSYYMHWVRQAPGQGLEWMGIINPSGGSTSYAQKFQGRVTMTRDTSTNTVYMELSSLRSEDTAVYYCARDQVVVAATLSNYGMDVWGQGTTVTVSS
VL: ELTQSPGTLSLSPGERATLSCRASQSVSSSYLAWYQQKPGQAPRLLIYDASNRATGIPARFSGSGSGTDFTLTISSLEPEDFAVYYCQQGTNWGIAFGQGTRLDIKR
notes: Human IgM with kappa light chain, secreted by hybridoma B9165 (ECACC 87040201), purified from culture supernatant; also called HMab COU-1; HuMab COU-1
B1: no binding (tested: 5 µg/ml COU-1 (P-0279)) [1]; no binding (tested: 5 µg/ml COU-1 (P-0279)) [2]; no binding (tested: 5 µg/ml COU-1 (P-0279)) [3]. B1: no binding (tested: 5 µg/ml COU-1 (P-0279)) [4]; no binding (tested: 5 µg/ml COU-1 (P-0279)) [5]; no binding (tested: 5 µg/ml COU-1 (P-0279)) [6]. B1: no binding (tested: 5 µg/ml COU-1 (P-0279)) [7].
